The source of these data is publication PMC11743138, “Structural basis for the interaction between the Drosophila RTK Sevenless (dROS1) and the GPCR BOSS” (Nature Communications, 2025).

The target in assay [1] is T1, dROS1 (Sevenless) full extracellular region, construct 1-9 (D. melanogaster, UniProt P13368 126-2113).
T1 construct: Sevenless (dROS1), D. melanogaster, extracellular region with FNIII domains 1 to 9, residues 126-2113; A Factor Xa cut site stands between the N-terminal octa-histidine tag and the protein; Coupled covalently to a CM5 chip in SPR; also called dROS1 1-9; full ECR of dROS1; source: Trichoplusia ni (Hi5) cells, baculovirus, purified from the medium (Ni resin, SEC)
The assay can be described thus: SPR; BIAcore T200; dROS1 constructs covalently coupled (NHS/EDC) to a CM5 chip, BOSS ECR proteins flowed over at 10 µL/min for 180 s; 20 mM HEPES pH 7.5, 100 mM NaCl; plateau RU against BOSS concentration fitted to a single-site specific binding model. The following applies: both partners purified.

Assay [2] deals with T2, dROS1 (Sevenless) extracellular region construct 1-4, his-tagged (D. melanogaster, UniProt P13368 126-1298).
T2 construct: Sevenless (dROS1), D. melanogaster, N-terminus of the ECR to the fourth FNIII domain, residues 126-1298; His tag is said to be kept for the HDX-MS experiment (immobilised on Ni resin); Factor Xa cut site after the His tag; also called dROS1 (1-4); N-terminal region of dROS1; source: Trichoplusia ni (Hi5) cells, baculovirus, purified from the medium (Ni resin, SEC); not shown: His8, N-terminal, …
T2 sequence (looked up): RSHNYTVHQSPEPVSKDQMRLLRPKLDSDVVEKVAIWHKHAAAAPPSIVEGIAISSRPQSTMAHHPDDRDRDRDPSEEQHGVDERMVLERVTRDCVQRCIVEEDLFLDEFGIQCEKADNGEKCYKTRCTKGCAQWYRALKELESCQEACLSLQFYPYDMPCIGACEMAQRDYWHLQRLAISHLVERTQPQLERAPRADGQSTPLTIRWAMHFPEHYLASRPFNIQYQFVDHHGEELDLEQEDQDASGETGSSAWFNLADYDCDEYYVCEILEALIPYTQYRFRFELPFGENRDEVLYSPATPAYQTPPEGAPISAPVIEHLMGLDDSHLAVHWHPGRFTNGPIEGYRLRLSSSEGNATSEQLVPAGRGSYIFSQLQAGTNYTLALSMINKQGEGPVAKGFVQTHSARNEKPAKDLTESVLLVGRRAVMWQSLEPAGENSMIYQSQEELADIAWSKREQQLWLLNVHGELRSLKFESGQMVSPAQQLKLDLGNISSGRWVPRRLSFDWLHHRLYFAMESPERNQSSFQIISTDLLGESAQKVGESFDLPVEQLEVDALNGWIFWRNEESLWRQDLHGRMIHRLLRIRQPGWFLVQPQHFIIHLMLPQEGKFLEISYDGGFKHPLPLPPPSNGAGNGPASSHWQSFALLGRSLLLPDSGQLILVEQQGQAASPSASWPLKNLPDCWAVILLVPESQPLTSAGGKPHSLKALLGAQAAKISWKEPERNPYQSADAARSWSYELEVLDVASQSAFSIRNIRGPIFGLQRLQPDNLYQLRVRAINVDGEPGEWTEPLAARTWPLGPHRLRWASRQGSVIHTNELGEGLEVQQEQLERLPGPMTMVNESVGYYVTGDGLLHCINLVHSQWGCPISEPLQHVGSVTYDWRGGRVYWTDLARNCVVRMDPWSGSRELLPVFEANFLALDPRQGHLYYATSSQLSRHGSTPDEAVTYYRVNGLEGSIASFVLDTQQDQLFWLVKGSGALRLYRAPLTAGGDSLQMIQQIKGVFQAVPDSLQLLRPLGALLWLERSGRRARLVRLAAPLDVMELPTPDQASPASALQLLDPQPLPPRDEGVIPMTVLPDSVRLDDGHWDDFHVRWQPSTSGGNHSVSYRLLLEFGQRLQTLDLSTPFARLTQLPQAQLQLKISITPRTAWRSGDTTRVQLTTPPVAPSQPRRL
Described as above. The settings on record: both partners purified.

For assay [3], the target named is T3, dROS1 (Sevenless) extracellular region construct 2-3 (D. melanogaster, UniProt P13368 440-931).
T3 chain: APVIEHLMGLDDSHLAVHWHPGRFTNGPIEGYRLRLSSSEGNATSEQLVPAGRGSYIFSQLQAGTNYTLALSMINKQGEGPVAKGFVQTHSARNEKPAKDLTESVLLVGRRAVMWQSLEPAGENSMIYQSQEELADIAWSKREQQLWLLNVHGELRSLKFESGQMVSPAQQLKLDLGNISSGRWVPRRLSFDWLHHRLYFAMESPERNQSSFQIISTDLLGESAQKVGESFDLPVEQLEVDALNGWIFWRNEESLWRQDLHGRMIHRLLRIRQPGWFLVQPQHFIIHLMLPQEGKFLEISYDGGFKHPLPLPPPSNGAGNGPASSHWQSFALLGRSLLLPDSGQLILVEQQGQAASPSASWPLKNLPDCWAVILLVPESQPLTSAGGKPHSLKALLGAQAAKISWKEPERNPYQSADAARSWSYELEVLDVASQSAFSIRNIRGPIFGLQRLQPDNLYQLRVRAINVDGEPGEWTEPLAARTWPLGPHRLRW
Put plainly: SPR.

B1: BOSS (Bride Of Sevenless) extracellular region, His tag cleaved (domain or fragment, D. melanogaster, UniProt P22815 102-510, looked up)
chain: GTTASLVPEICLNGLQLTVNSADEGTVIRKQEEFVKILEGDVVLSVLTKDPDSALFVINRVNQANLIMADFEIGIRAISIDNASLAENLLIQEVQFLQQCTTYSMGIFVDWELYKQLESVIKDLEYNIWPIPGTRAHLFPKVAHLLHQMPWGEKIASVEIATETLEMYNEFMEAARQEHMCLMHFKSDDNVYIMFGNKLASHFKENGTLFSVPTDRTDDEFLADLPNRAFVLMENEIDLSTAVELDATPTALDEILIGKSVLPSRVLSFAGSIIDLMNWLRGSLSKHCKRGEEHDLYVLESCFNFLNFIEDWRTSEYRQAHDTAEILSLLLMRKLGTAMNFQMYQKKVLTLDKITGESRTELREIASQNFVTNVTTYYHYNRDNHTSLELKTKFGQVFNCQYSAGDNRR
notes: Bride of sevenless (BOSS), D. melanogaster, extracellular region, residues 102-510; also called BOSS ECR; BOSSWT; source: Trichoplusia ni (Hi5) cells, baculovirus, purified from the medium (Ni resin, SEC; Factor Xa cleavage, Ni flow-through, SEC); not shown: His8, N-terminal, cleaved
As for B1, the dissociation constant Kd was 4.4 µM in assay [1], 3 to 5 µM in assay [2] and 5 µM in assay [3].
